Reference: patent US6344321, “Nucleic acid ligands which bind to hepatocyte growth factor/scatter factor (HGF/SF) or its receptor c-met” (Gilead Sciences, Inc.)

B1: 7c-1 (ssRNA)
RNA: GGGAGGACGAUGCGGUUUGACUAUGUCUGACGGGUCUGUGGUCAAUUCCGCCCCCAGACGACUCGCCCGA
modifications: 2'-F pyrimidines
B2: 10-67 (ssRNA)
RNA: GGGAGAUAAGAAUAAACGCUCAAUCGGGCUUGGAUGUGGACGUGUAUUUCUAGCUGUGUACGCUUCGACAGGAGGCUCACAACAGGC
modifications: 2'-F pyrimidines
B3: 10-4 (ssRNA)
RNA: GGGAGAUAAGAAUAAACGCUCAAUUGGGUCGGGACUCGAAAGGAUUUGAUAGGAUACAUGAAUUUCGACAGGAGGCUCACAACAGGC
modifications: 2'-F pyrimidines
B4: 10-35 (ssRNA)
RNA: GGGAGAUAAGAAUAAACGCUCAAAUCCAAAUUCUGGUCAUGAGGCGCUGCAGAUACUGCUGCGUUCGACAGGAGGCUCACAACAGGC
modifications: 2'-F pyrimidines
B5: 10-68 (ssRNA)
RNA: GGGAGAUAAGAAUAAACGCUCAACGCGGGAUUCUCUGAGGACGAGGCACGUGUGGGUAAUUCGUUCGACAGGAGGCUCACAACAGGC
modifications: 2'-F pyrimidines
B6: 10-38 (ssRNA)
RNA: GGGAGAUAAGAAUAAACGCUCAAUCUGCGGACGGUGAGGUUAAGUUGCAACGACUGCUUGGCGUUCGACAGGAGGCUCACAACAGGC
modifications: 2'-F pyrimidines
B7: 10-56 (ssRNA)
RNA: GGGAGAUAAGAAUAAACGCUCAACCUUAGGGCUCCCAAAAAUCGGGCCCGUCGGGCCGAUCACUUCGACAGGAGGCUCACAACAGGC
modifications: 2'-F pyrimidines

These binders were tested against c-met extracellular domain-IgG1-His6 (Homo sapiens, UniProt P08581 P08581:25-932) (assay: filter; biphasic; lower affinity Kd ~5 nM). Conditions: chain copies: 2.
c-met extracellular domain-IgG1-His6, sequence (P08581 25-932, one chain of several): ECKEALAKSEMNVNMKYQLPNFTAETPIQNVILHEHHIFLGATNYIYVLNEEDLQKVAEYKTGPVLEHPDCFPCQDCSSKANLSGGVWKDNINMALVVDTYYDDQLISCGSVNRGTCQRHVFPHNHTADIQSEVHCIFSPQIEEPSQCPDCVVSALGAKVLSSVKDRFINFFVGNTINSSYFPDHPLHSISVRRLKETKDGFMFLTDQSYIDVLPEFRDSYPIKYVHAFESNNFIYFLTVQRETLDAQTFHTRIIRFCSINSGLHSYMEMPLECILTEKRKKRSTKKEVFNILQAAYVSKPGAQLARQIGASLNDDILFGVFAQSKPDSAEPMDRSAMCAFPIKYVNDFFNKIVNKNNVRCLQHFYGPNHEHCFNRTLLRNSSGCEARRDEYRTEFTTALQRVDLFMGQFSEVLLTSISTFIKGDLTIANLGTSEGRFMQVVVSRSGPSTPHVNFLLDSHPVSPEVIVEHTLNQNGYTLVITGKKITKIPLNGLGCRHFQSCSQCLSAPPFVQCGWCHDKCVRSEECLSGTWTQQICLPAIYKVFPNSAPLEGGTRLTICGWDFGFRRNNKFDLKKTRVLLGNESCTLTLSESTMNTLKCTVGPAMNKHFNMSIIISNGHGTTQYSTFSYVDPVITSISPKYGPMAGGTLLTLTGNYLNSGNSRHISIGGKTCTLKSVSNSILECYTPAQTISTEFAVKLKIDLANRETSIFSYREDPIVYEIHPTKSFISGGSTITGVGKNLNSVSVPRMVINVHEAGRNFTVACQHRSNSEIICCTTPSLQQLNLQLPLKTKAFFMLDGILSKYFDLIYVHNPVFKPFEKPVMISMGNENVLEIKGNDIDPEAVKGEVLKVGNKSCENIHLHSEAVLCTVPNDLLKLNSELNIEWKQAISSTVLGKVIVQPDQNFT

Row | Binder | Kd
1 | B1 | ~0.05 nM

Each binder was assayed against T1, HGF (hepatocyte growth factor/scatter factor) (UniProt P14210;P14210 P14210:32-494,P14210:495-728) (assay: filter; 40N8 hitchhiker). Conditions: tags: R&D Systems.
T1 sequence (P14210 32-494, chain 1 of 2): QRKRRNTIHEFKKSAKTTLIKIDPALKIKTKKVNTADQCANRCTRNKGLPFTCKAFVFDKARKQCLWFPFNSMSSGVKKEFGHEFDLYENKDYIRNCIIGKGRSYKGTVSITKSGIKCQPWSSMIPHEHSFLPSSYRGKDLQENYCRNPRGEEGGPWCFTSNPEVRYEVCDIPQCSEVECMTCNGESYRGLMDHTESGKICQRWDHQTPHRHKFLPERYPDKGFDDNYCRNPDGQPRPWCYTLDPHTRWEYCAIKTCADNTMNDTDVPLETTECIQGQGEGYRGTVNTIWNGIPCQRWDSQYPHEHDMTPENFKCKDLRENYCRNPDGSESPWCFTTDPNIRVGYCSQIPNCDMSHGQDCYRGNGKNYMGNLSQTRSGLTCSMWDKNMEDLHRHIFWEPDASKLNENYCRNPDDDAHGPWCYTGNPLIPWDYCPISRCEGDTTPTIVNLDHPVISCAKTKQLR
T1 sequence (P14210 495-728, chain 2 of 2): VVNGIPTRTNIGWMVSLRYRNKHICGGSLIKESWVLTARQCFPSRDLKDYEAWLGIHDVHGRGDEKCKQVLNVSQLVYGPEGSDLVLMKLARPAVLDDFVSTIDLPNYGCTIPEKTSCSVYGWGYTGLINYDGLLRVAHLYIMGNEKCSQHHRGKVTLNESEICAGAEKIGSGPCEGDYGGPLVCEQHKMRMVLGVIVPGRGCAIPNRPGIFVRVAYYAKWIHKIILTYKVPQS
Experimental: (§1) In binding reactions, RNA concentrations were kept as low as possible—between 1 and 20 pM—to ensure equilibrium in conditions of protein excess. Oligonucleotides were incubated for 15 minutes at 37° C. with varying amounts of the protein in 43 µl of the binding buffer. Thirty-two microliters of each binding mixture placed on pre-wet 0.45 µm nitrocellulose filters under suction. Each well was immediately washed with 0.5 ml binding buffer. The amount of radioactivity retained on the filters was quantitated by imaging. The radioactivity that bound to filters in the absence of protein was used for background correction. The percentage of input oligonucleotide retained on each filter spot was plotted against the corresponding log protein concentration. The nonlinear least square method was used to obtain the dissociation constant (K_d; reference Jellinek, Lynott et al. 1993, Proc. Natl. Acad. Sci. USA. 90:11227–31).

Row | Binder | Kd
2 | B2 | 0.64 nM
3 | B3 | 0.61 nM
4 | B4 | 2.33 nM
5 | B5 | 1 nM
6 | B6 | 7.38 nM
7 | B7 | 0.28 nM

Each binder was assayed against T1, HGF (hepatocyte growth factor/scatter …) (assay: filter; one or two 5' G). Conditions: tags: R&D Systems.
Experimental: as §1

Row | Binder | Kd
8 | GGUGGGAACCUAUUUAUGUCAUCGUCUGUGCCCA (ssRNA, 2'-F pyrimidines) [Tr70] | 2.4 nM
9 | GGUCAGAAUGACUUUCAUAGCUCGCUUUCCCCCA (ssRNA, 2'-F pyrimidines) [Tr71] | 7.7 nM
10 | GGACAGUUUGUCUUCUAUAGCUCGUCGCCCCCA (ssRNA, 2'-F pyrimidines) [Tr59] | 7.2 nM
11 | GGCGGUGUGAACCUGUUUAUGUCCGCGUACCCCA (ssRNA, 2'-F pyrimidines) [Tr7] | 0.67 nM
12 | GGUGAUAACCUAUUUAUGACGUCGUGGCUCCCCA (ssRNA, 2'-F pyrimidines) [Tr42] | 6.1 nM
13 | GGUGGGAACCUAUUUAUGUCAUCUCCGUCCCCA (ssRNA, 2'-F pyrimidines) [Tr45] | 1.7 nM
14 | GGUGUGAACCUGUUUAUGCCAUCUCGAGUCCCCA (ssRNA, 2'-F pyrimidines) [Tr20] | 3.4 nM
15 | GGCAGACGACUCGCCCGAAGGACGAUGCGGCA (ssRNA, 2'-F pyrimidines) [Tr5] | 28 nM
16 | GGCGUGAGCCUAUUUAUGUCAUCAUGUCUGUGCA (ssRNA, 2'-F pyrimidines) [Tr6] | 9 nM
17 | GGGAGUUAUAUUUCGUCACCCGUUCCUUUGCCCCA (ssRNA, 2'-F pyrimidines) [Tr14] | 2.2 nM

What follows are binders tested against T1, HGF (hepatocyte growth factor/scatter …) (assay: filter; one or two 5' G; no inhibition of HGF in cells without PEG). Conditions: tags: R&D Systems.
Experimental: as §1

Row | Binder | Kd
18 | GGAAUCACAGGAAUCAACUUCUAUUCCCGCCCCA (ssRNA, 2'-F pyrimidines) [Tr51] | 0.06 nM

Each binder was assayed against T1, HGF (hepatocyte growth factor/scatter …) (assay: filter; no significant binding retained). Conditions: tags: R&D Systems.
Experimental: as §1

Row | Binder | binding result
19 | GGACGAUGCGGGCGGCUCGAUGUCGUCU (ssRNA, 2'-F pyrimidines) [8-17 28mer] | no binding
20 | GGGAGGACGAUGCGGGCGGCUCGAUGUCGUCUUAUCCC (ssRNA, 2'-F pyrimidines) [8-17 38mer] | no binding
